How the values were obtained:
[1] = biological target: PaxA_(981-1084), T1-CDD di-domain construct (apo), X. cabanillasii JM26 (Xenorhabdus cabanillasii JM26) (UniProt W1J0W9); test: ITC; PaxA construct titrated with the PaxB NDD peptide or its variant; n=3 for the variants
[2] = biological target: PaxA_(986-1089), T1-CDD di-domain construct (apo), X. bovienii SS-2004 (Xenorhabdus bovienii SS-2004); test: as above
[3] = biological target: T1, PaxB_(1-30) (PaxB NDD), X. cabanillasii JM26 (Xenorhabdus cabanillasii JM26); test: ITC; apo, replicate 1
T1 chain: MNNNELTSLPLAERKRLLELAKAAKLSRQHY

[4] = biological target: T1, PaxB_(1-30) (PaxB NDD), X. cabanillasii …; test: ITC; apo, replicate 3
[5] = biological target: T1, PaxB_(1-30) (PaxB NDD), X. cabanillasii …; test: ITC; replicate 3
[6] = biological target: T1, PaxB_(1-30) (PaxB NDD), X. cabanillasii …; test: ITC; replicate 1
[7] = biological target: T1, PaxB_(1-30) (PaxB NDD), X. cabanillasii …; test: ITC; holo (Ppant), mean of three replicates
[8] = biological target: T1, PaxB_(1-30) (PaxB NDD), X. cabanillasii …; test: ITC; holo (Ppant), replicate 2
[9] = biological target: T1, PaxB_(1-30) (PaxB NDD), X. cabanillasii …; test: ITC; holo (Ppant), replicate 3
[10] = biological target: T1, PaxB_(1-30) (PaxB NDD), X. cabanillasii …; test: ITC; holo (Ppant), replicate 1
[11] = test system: PaxB NDD; test: ITC titration of X. cabanillasii PaxA constructs with PaxB NDD; assay type: binding, Xenorhabdus cabanillasii JM26; conditions: X. cabanillasii JM26, 20 °C, pH 6.5, one site model
Text: Unfortunately, despite its very high affinity the complex between the PaxA T1‐^CDD di‐domain construct and the PaxB ^NDD peptide from the PaxS NRPS from X. bovienii SS‐2004 was not suitable for a full structure determination. The closely related species Xenorhabdus cabanillasii JM26 also contains the PaxS NRPS with PaxA and PaxB (Figure S4). […] The affinity of this interaction was not modulated by the presence of the Ppant moiety in the PaxA T1 domain (Figure S7). […] Thus, the interaction between PaxA and PaxB from the PaxS NRPS of X. cabanillasii has biophysical properties very similar to the one from the X. bovienii system and was amenable to a full structural characterization by NMR spectroscopy.
England BioLabs) approach following the manufacturer`s instructions.
Protein expression and purification […]
interactions, proteins from Xenorhabdus cabanillasii and Xenorhabdus bovienii were […]
BAP1 under the control of a T7 promoter. All proteins of interest were expressed as SUMO […]
concentration measurements upon cleavage with Ulp protease. All constructs containing the […]
measurements, proteins were expressed in LB medium. Protein expression was induced at an […]
After expression, cells were lysed by […]
spectrometers equipped with cryogenic 5 mm triple resonance probes. The proton chemical […]
mercaptoethanol and 5 % D2O. Sequential assignments of backbone amide signals and […]

For “PaxB NDD P10L variant, X. cabanillasii JM26 (domain or fragment)”, the Kd [1] was 3900 nM.

“PaxB NDD K22E mutant, X. cabanillasii JM26 (domain or fragment)” showed a Kd [1] of 3800 nM.

“PaxB NDD R16E mutant, X. cabanillasii JM26 (domain or fragment)” showed a Kd [1] of 2800 nM.

“PaxB_(1-36) (PaxB NDD), X. bovienii SS-2004 (domain or fragment)” gave a Kd [2] of 201 nM and a stoichiometry N [2] of 0.74.

Work on “PaxB_(1-30) (PaxB NDD), X. cabanillasii JM26 (domain or fragment)” yielded a Kd [1] of 248 nM and a stoichiometry N [1] of 0.88.

B1: PaxA_(981-1084), T1-CDD di-domain construct (apo), X. cabanillasii JM26 (domain or fragment)
chain: DHSSVITQEYAAPQGEIEEQLADIWQTILKIDRIGRYDNFFELGGHSLLVLQLQSRINEIFDVDISIQQLFAHPSICQLEECIINAQLLQFDADSLQDIYKSME
For B1, the Kd [3] was 267 nM, the Kd [4] was 224 nM and the Kd [5] was 224 nM. For the same molecule, the Kd [6] was 267 nM.

B2: PaxA T1-CDD di-domain with the Ppant moiety (holo), X. cabanillasii JM26 (domain or fragment)
chain: DHSSVITQEYAAPQGEIEEQLADIWQTILKIDRIGRYDNFFELGGHSLLVLQLQSRINEIFDVDISIQQLFAHPSICQLEECIINAQLLQFDADSLQDIYKSME
modifications: phosphopantetheinyl (Ppant) arm attached to residue S1027
Work on B2 yielded a Kd [7] of 220 nM, a Kd [8] of 220 nM and a Kd [9] of 192 nM. For the same molecule, the Kd [10] was 248 nM.

B3: PaxA981–1084: X. cabanillasii PaxA T1-CDD di-domain (protein)
chain: DHSSVITQEYAAPQGEIEEQLADIWQTILKIDRIGRYDNFFELGGHSLLVLQLQSRINEIFDVDISIQQLFAHPSICQLEECIINAQLLQFDADSLQDIYKSME
B3 was tested, and the “n (binding stoichiometry)” value [11] was 0.88±0.01 sites.
